This is an account of results in doi:10.1101/258020 (bioRxiv, 2018).

B1: human β-cardiac myosin subfragment-1 (short S1, sS1 (complex)
chain 1: MGDSEMAVFGAAAPYLRKSEKERLEAQTRPFDLKKDVFVPDDKQEFVKAKIVSREGGKVTAETEYGKTVTVKEDQVMQQNPPKFDKIEDMAMLTFLHEPAVLYNLKDRYGSWMIYTYSGLFCVTVNPYKWLPVYTPEVVAAYRGKKRSEAPPHIFSISDNAYQYMLTDRENQSILITGESGAGKTVNTKRVIQYFAVIAAIGDRSKKDQSPGKGTLEDQIIQANPALEAFGNAKTVRNDNSSRFGKFIRIHFGATGKLASADIETYLLEKSRVIFQLKAERDYHIFYQILSNKKPELLDMLLITNNPYDYAFISQGETTVASIDDAEELMATDNAFDVLGFTSEEKNSMYKLTGAIMHFGNMKFKLKQREEQAEPDGTEEADKSAYLMGLNSADLLKGLCHPRVKVGNEYVTKGQNVQQVIYATGALAKAVYERMFNWMVTRINATLETKQPRQYFIGVLDIAGFEIFDFNSFEQLCINFTNEKLQQFFNHHMFVLEQEEYKKEGIEWTFIDFGMDLQACIDLIEKPMGIMSILEEECMFPKATDMTFKAKLFDNHLGKSANFQKPRNIKGKPEAHFSLIHYAGIVDYNIIGWLQKNKDPLNETVVGLYQKSSLKLLSTLFANYAGADAPIEKGKGKAKKGSSFQTVSALHRENLNKLMTNLRSTHPHFVRCIIPNETKSPGVMDNPLVMHQLRCNGVLEGIRICRKGFPNRILYGDFRQRYRILNPAAIPEGQFIDSRKGAEKLLSSLDIDHNQYKFGHTKVFFKAGLLGLLEEMRDERLSRIITRIQAQSRGVLARMEYKKLLERR
chain 2: not shown
B2: human β-cardiac myosin sS1-eGFP (MYH7 1-808) D239N with essential light chain (complex)
chain 1: B1 chain 1 with D239N
chain 2: not shown
B3: human β-cardiac myosin sS1-eGFP (MYH7 1-808) H251N with essential light chain (complex)
chain 1: B1 chain 1 with H251N
chain 2: not shown
B4: human β-cardiac myosin sS1-eGFP (MYH7 1-808) S532P with essential light chain (complex)
chain 1: B1 chain 1 with S532P
chain 2: not shown
B5: human β-cardiac myosin sS1-eGFP (MYH7 1-808) R237W with essential light chain (complex)
chain 1: B1 chain 1 with R237W
chain 2: not shown
B6: human β-cardiac myosin sS1-eGFP (MYH7 1-808) A223T with essential light chain (complex)
chain 1: B1 chain 1 with A223T
chain 2: not shown

Numbering of substitutions follows the chain as printed. In names and notes the source's numbering stands.

One assay deals with T1, TMR-phalloidin-labelled biotinylated actin filaments (Cytoskeleton) (UniProt P68135 1-377, biotin (~1 biotin per monomer)). The assay is described as follows: optical trap.
As to B1, the “k0 (detachment rate from actin at zero load) with F3345” value came out at 36 s⁻¹.

Consider B2, for which the “k0 (detachment rate from actin at zero load) with F3345” value was found to be 24 s⁻¹.

Regarding B3, the “k0 (detachment rate from actin at zero load) with F3345” value was 20 s⁻¹.

The target in another assay is T1, TMR-phalloidin-labelled biotinylated …. The assay is described as follows: optical trap. The source holds these as a separate data set.
With B4, the “k0 (detachment rate from actin at zero load)” value turned out to be 80 s⁻¹.

As to B2, the “k0 (detachment rate from actin at zero load)” value was 140 s⁻¹.

For the molecule B5, the “k0 (detachment rate from actin at zero load)” value turned out to be 155 s⁻¹.

For B6, the “k0 (detachment rate from actin at zero load)” value is 104 s⁻¹.

For the molecule B3, the “k0 (detachment rate from actin at zero load)” value worked out at 152 s⁻¹.
